Measured values: article PMC4270374 (Biochemistry, 2014)
Where a chain is given by its changes, count along the chain named. In names and notes the source's numbering stands.

B1: AfUGMY104A (UDP-galactopyranose mutase from Aspergillus fumigatus, Y104A on the K344A/K345A background) (enzyme)
chain: MTHPDISVDVLVIGAGPTGLGAAKRLNQIDGPSWMIVDSNETPGGLASTDVTPEGFLYDVGGHVIFSHYKYFDDCLDEALPKEDDWYTHQRISYVRCQGQWVPAPFQNNISMLPKEEQVKCIDGMIDAALEARVANTKPKTFDEWIVRMMGTGIADLFMRPYNFKVWAVPTTKMQCAWLGERVAAPNLKAVTTNVILGKTAGNWGPNATFRFPARGGTGGIWIAVANTLPKEKTRFGEKGKVTKVNANNKTVTLQDGTTIGYKKLVSTMAVDFLAEAMNDQELVGLTKQLFYSSTHVIGVGVRGSRPERIGDKCWLYFPEDNCPFYRATIFSNYSPYNQPEASAALPTMQLADGSRPQSTEAKEGPYWSIMLEVSESSMKPVNQETILADCIQGLVNTEMLKPTDEIVSTYHRRFDHGYPTPTLEREGALTQILPKLQDKDIWSRGRFGSWRYEVGNQDHSFMLGVEAVDNIVNGAVELTLNYPDFVNGRQNTERRLVDGAQVFAKSKAQ
B2: AfUGMY317A (UDP-galactopyranose mutase from Aspergillus fumigatus, Y317A on the K344A/K345A background) (enzyme)
chain: B1 chain with A104Y, Y317A
B3: AfUGMQ107A (UDP-galactopyranose mutase from Aspergillus fumigatus, Q107A on the K344A/K345A background) (enzyme)
chain: B1 chain with A104Y, Q107A
B4: AfUGMN207A (UDP-galactopyranose mutase from Aspergillus fumigatus, N207A on the K344A/K345A background) (enzyme)
chain: B1 chain with A104Y, N207A

Target: the molecule itself
Experiment: crystal structure

Protein | stoichiometry N
B1 | 4
B2 | 4
B3 | 4
B4 | 4
